# Like-named read-outs stand apart in the source and are kept apart here.
# B1: Phly PrfA box (dsDNA)
# DNA 1: TGAGGCATTAACATTTGTTAACGACGAT
# DNA 2: ATCGTCGTTAACAAATGTTAATGCCTCA
# B2: PactA PrfA box (dsDNA)
# DNA 1: AACTGATTAACAAATGTTAGAGAAAACT
# DNA 2: AGTTTTCTCTAACATTTGTTAATCAGTT
# What was measured:
# Assay in all cases: fluorescence polarization
# PrfA(C/A)4 = PrfA(C/A)4 (Listeria monocytogenes, UniProt P22262 1-237, C38A;C144A;C205A;C229A)
# PrfA wild type [1] = biological target: T1, PrfA wild type (Listeria monocytogenes, UniProt P22262 1-237)
# PrfA wild type [2] = biological target: T1, PrfA wild type; remark: listed apart in the source
Binder,Kd (PrfA(C/A)4) [nM],Kd (PrfA wild type [1]) [nM],Kd (PrfA wild type [2]) [nM]
B1,32.8,34.2,–
B2,125,–,96.4
